Molecular target: T1, IKKα-NEMO interaction (Homo sapiens, UniProt Q9Y6K9)
T1 construct: bacterially expressed version of full length NEMO fused at its NH2-terminus to glutathione S-transferase; made in house; host or cells: bacteria (GST-NEMO); in vitro transcription/translation (IKKα)
Assay: GST pull-down of IKKα by GST-NEMO in the presence of NBD peptide
Assay type: binding
Conditions: peptide 500 and 1000 μM
Experimental: (A) Sequences of the NBD wild type (SEQ ID NO:177) and scrambled control peptides (SEQ ID NO:178). The wild type peptide corresponds to residues 734 to 744 of IKKβ. (B) GST pull-down analysis was performed using GST-NEMO and in vitro transcribed and translated IKKα (upper panel) and IKKβ (middle panel) in the presence or absence of either vehicle (2% DMSO), scrambled or wild type NBD peptide (500 and 1000 μM of each peptide). […] (C) Densitometric analysis of autoradiograph bands obtained following GST pull-down of IKKa and IKKb using GST-NEMO in the presence of a range of concentrations of wild type NBD peptide. […] The data are presented as the pixel density as a percentage of control (no peptide) and represent means±sd (n=11). Analysis was performed using the NIH-Image software.

T1 sequence (Q9Y6K9 whole entry, the tested form may be a part): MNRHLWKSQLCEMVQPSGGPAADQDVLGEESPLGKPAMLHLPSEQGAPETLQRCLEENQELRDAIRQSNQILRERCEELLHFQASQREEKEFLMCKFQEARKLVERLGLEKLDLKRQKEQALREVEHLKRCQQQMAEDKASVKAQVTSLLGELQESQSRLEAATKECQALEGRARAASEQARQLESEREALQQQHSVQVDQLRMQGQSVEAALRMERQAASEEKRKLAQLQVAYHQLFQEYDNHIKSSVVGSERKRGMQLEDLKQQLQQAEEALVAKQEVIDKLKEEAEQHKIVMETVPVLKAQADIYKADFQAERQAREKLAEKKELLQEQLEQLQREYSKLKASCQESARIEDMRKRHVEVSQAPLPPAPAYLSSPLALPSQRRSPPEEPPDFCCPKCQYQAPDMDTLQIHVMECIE

interaction of IKKα with NEMO (GST pull-down): prevents
Substance: NBD wild type (SEQ ID NO:177): wild type peptide corresponding to residues 734 to 744 of IKKβ (FTALDWSWLQT; Description of Unknown: Unknown wildtype NBD peptide)

Reference: US8242240B2, “Anti-inflammatory compounds and uses thereof” (Yale University, priority 2000, dated 2012)
